Source: US20150152192A1 (SAMSUNG ELECTRONICS, published 2015)

What was measured:
[1] = biological target: T1, human Ang2 polypeptide (R&D systems; Accession #O15123; SEQ ID NO: 172) (human, UniProt O15123 19-496); test: ELISA, antigen coated, scFv, anti-HA-HRP; 50% binding concentration (Kd)
T1 construct: Bought protein; also called hAng2; human Ang2 protein
T1 sequence: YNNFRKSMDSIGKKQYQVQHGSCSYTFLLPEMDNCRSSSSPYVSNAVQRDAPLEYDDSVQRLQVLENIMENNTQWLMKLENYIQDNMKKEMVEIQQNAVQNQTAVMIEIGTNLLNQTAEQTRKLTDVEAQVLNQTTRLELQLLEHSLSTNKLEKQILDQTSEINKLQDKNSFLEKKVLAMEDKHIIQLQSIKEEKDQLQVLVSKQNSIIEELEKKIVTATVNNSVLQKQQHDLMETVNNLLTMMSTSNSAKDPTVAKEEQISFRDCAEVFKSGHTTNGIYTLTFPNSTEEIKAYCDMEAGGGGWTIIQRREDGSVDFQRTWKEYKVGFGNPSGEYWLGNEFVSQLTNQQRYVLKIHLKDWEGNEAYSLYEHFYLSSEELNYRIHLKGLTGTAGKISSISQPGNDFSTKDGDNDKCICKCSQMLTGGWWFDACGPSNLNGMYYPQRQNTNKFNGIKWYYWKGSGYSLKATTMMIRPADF
Protocol: (§1) To measure binding of the antibodies prepared above with each antigen, ELISA was performed. A 96-well MaxiSorp™ flat-bottom plate (Nunc) was coated with 5˜20 μg/ml of human Ang2 and mouse Ang2 (Accession # NP_{—}031452) (both, R&D Systems). After that, the plate was washed five times with 0.05% (v/v) Tween-20-containing PBS and then blocked with 1% (v/v) BSA-containing PBS at a room temperature for 2 hours. The anti-Ang2 antibodies in their scFv forms prepared above were added to each well of the plate which was then allowed to react at a room temperature for 2 hours.
(§2) Thereafter, the plate was washed five times with 0.05% Tween-20-containing PBS and then, an HRP-conjugated anti-HA (HA-probe Antibody (F-7) HRP conjugated) antibody (Santacruz) diluted in 1% (v/v) BSA-containing PBS at 1:1,000 ratio (v/v) was added in the amount of 50 μl to each well to react at a room temperature for 1 hour, followed by washing five times with 0.1% (v/v) Tween-20-containing PBS. Finally, 100 μl of TMB substrate (cell signal) was added to each well of the plate to induce color development at a room temperature for 3 min and then, the reaction was ceased by the addition of 50 μl of 5N H₂SO₄ solution and OD450 values were measured on a plate reader (Molecular Devices).

[2] = biological target: T2, mouse Ang2 (Accession # NP-031452) (R&D Systems) (mouse, UniProt O35608 19-496, limits assumed); test: as above
T2 construct: Bought protein; also called mAng2
T2 sequence (looked up): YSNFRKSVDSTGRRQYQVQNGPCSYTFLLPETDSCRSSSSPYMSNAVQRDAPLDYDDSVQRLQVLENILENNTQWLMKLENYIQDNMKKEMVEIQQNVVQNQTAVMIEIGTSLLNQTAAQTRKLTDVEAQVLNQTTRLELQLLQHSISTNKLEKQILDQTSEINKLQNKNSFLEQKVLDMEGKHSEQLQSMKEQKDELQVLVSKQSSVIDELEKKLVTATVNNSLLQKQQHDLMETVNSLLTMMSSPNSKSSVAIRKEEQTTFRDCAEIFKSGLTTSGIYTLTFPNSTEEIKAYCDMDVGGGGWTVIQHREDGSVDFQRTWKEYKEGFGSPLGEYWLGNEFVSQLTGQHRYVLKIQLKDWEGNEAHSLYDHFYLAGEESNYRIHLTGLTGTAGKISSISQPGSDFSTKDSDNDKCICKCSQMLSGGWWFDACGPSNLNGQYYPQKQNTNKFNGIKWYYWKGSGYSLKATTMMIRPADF
Protocol: as §1, §2

[3] = biological target: T3, Ang2 with P452 mutated with alanine, tagged with FLAG (human, UniProt O15123 19-496, limits assumed); test: ELISA, scFv coated, 250 ng FLAG-tagged Ang2 mutant, anti-FLAG-HRP
T3 sequence: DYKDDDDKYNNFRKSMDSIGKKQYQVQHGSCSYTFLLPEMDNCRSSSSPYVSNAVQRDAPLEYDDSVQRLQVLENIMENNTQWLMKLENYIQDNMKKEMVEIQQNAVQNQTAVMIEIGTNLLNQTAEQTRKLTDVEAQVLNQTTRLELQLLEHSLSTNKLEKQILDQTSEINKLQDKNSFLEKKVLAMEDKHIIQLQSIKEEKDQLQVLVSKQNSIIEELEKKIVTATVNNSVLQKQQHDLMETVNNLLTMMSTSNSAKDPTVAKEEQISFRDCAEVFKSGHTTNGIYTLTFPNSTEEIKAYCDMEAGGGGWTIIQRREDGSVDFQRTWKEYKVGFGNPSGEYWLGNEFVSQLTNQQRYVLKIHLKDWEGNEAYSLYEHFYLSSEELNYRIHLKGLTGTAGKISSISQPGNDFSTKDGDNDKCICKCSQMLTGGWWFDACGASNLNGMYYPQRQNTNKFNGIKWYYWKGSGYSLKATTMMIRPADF
Protocol: A 96-well MaxiSorp™ flat-bottom plate (Nunc) was coated with 50 μl of the anti-Ang2 scFv selected above. After that, the plate was washed five times with 0.05% (v/v) Tween-20-containing PBS and then blocked with 1% (v/v) BSA-containing PBS at a room temperature for 2 hours. […] Thereafter, the plate was washed five times with 0.05% Tween-20-containing PBS and then, an HRP-conjugated anti-FLAG antibody (SIGMA) diluted in 1% (v/v) BSA-containing PBS at 1:5,000 ratio (v/v) was added in the amount of 50 μl to each well to react at a room temperature for 1 hour, followed by washing five times with 0.1% (v/v) Tween-20-containing PBS.
Finally, 100 μl of TMB substrate (cell signal) was added to each well of the plate to induce color development and then, the reaction was ceased by the addition of 50 μl of 5N H₂SO₄ solution and OD450 values were measured on a plate reader (Molecular Devices).

B1: SAIT-ANG-2-AB-2-E6 (scFv form) (scFv, V domains shown)
VH: EVQLLESGGGLVQTGGSLRLSCAASGFTFSDYAMSWVRQAPGKGLEWVSAIYPDSGNKYYADSVKGRFTISRDNSKNTLYLQMNSLRAEDTAVYYCARHSSDPKVKSGYYDDGMDVWGQGTLVAVSS
VL: QSVLTQPPSASGTPGQRVTISCSGSSSNIGNNAVNWYQQLPGTAPKLLIYADSNRPSGVPDRFSGSKSGTSASLAISGLRSEDEADYYCGSWDYSLSGYVFGGGTKLTVLG
notes: scFv from a phage display library, partly purified from E. coli periplasm on Ni-NTA and detected with anti-HA
In the case of B1, the Kd [1] is reported as 9.3 nM, the Kd [2] is reported as 5.1 nM and the “Relative binding (%) with Mutant Ang2 compared to the binding with native Ang2” value (“Relative binding (%) with Mutant Ang2” for short) [3] is reported as 24%.

B2: SAIT-ANG-2-AB-7-C9 (scFv form) (scFv, V domains shown)
VH: EVQLLESGGGLVQPGGSLRLSCAASGFTFSNYAMSWVRQAPGKGLEWVSAISSGGGNIYYADSVKGRFTISRDNSKNTLYLQMNSLRAEDTAVYYCAKSGIQPSPPSMSSAYAMDVWGQGTLVTVSS
VL: QSVLTQPPSASGTPGQRVTISCSGSSSNIGNNDVYWYQQLPGTAPKLLIYANSHRPSGVPDRFSGSKSGTSASLAISGLRSEDEADYYCGTWDYSLSGYVFGGGTKLTVLG
notes: scFv from a phage display library
For B2, the Kd [1] was 3.8 nM, the Kd [2] was 8.7 nM and the “Relative binding (%) with Mutant Ang2” value [3] was 85%.

B3: SAIT-ANG-2-AB-4-C11 (scFv form) (scFv, V domains shown)
VH: EVQLLESGGGLVQPGGSLRLSCAASGFTFSDYAMSWVRQAPGKGLEWVSSIYPDDGNTYYADSVKGRFTISRDNSKNTLYLQMNSLRAEDTAVYYCARHTSHHTSIDGYYYYGMDGWGQGTLVTVSS
VL: QSVLTQPPSASGTPGQRVTISCTGSSSNIGNNDVSWYQQLPGTAPKLLIYSDSKRPSGVPDRFSGSKSGTSASLAISGLRSEDEADYYCGSWDYSLSGYVFGGGTKLTVLG
notes: as for B2
In the case of B3, the Kd [1] is reported as 4.9 nM, the Kd [2] is reported as 28.6 nM and the “Relative binding (%) with Mutant Ang2” value [3] is reported as 70%.

B4: SAIT-ANG-2-AB-4-F5 (scFv form) (scFv, V domains shown)
VH: EVQLLESGGGLVQPGGSLRLSCAASGFTFSDYDMSWVRQAPGKGLEWVSSISHGDSNKYYADSVKGRFTISRDNSKNTLYLQMNSLRAEDTAVYYCAKSSGIQESPPTYYYYGMDVWGQGTLVTVSS
VL: QSVLTQPPSASGTPGQRVTISCSGSSSNIGSNAVNWYQQLPGTAPKLLIYADSNRPSGVPDRFSGSKSGTSASLAISGLRSEDEADYYCGSWDYSLSGYVFGGGTKLTVLG
notes: as for B2
For B4, the Kd [1] was 12.1 nM, the Kd [2] was 23.8 nM and the “Relative binding (%) with Mutant Ang2” value [3] was 15%.

B5: SAIT-ANG-2-AB-3-D3 (scFv form) (scFv, V domains shown)
VH: EVQLLESGGGLVQPGGSLRLSCAASGFTFSDYDMSWVRQAPGKGLEWVSGISSDDGNTYYADSVKGRFTISRDNSKNTLYLQMNSLRAEDTAVYYCARPTIDKYTLRGYYSYGMDVWGQGTLVTVSS
VL: QSVLTQPPSASGTPGQRVTISCTGSSSNIGSNYVSWYQQLPGTAPKLLIYSDNKRPSGVPDRFSGSKSGTSASLAISGLRSEDEADYYCGTWDDSLNGYVFGGGTKLTVLG
notes: as for B2
In the case of B5, the Kd [1] is reported as 4.3 nM, the Kd [2] is reported as 37.8 nM and the “Relative binding (%) with Mutant Ang2” value [3] is reported as 97.3%.

B6: SAIT-ANG-2-AB-4-F11 (scFv form) (scFv, V domains shown)
VH: EVQLLESGGGLVQTGGSLRLSCAASGFTFSDYAMSWVRQAPGKGLEWVSSIYPDDGNTYYADSVKGRFTISRDNSKNTLYLQMNSLRAEDTAVYYCAKHPVRLNLHPMYYYYGMDVWGQGTLVTVSS
VL: QSVLTQPPSASGTPGQRVTISCTGSSSNIGNNAVSWYQQLPGTAPKLLIYSDSQRPSGVPDRFSGSKSGTSASLAISGLRSEDEADYYCATWDYSLSAYVFGGGTKLTVLG
notes: as for B2
B6 was tested, and the Kd [1] was 3 nM, the Kd [2] was 20.7 nM and the “Relative binding (%) with Mutant Ang2” value [3] was 91.6%.

B7: SAIT-ANG-2-AB-8-A5 (scFv form) (scFv, V domains shown)
VH: EVQLLESGGGLVQPGGSLRLSCAASGFTFSDYYMSWVRQAPGKGLEWVSGIYPSGGSTYYADSVKGRFTISRDNSKNTLYLQMNSLRAEDTAVYYCARDPSTLTYAGFDYWGQGTLVTVSS
VL: QSVLTQPPSASGTPGQRVTISCSGSSSNIGNNYVTWYQQLPGTAPKLLIYADSHRPSGVPDRFSGSKSGTSASLAISGLRSEDEADYYCATWDYSLSGYVFGGGTKLTVLG
notes: as for B2
For B7, the Kd [1] was 5.3 nM, the Kd [2] was 11.7 nM and the “Relative binding (%) with Mutant Ang2” value [3] was 86.5%.
